{"source": "paper doi:10.1101/538884", "about": "(bioRxiv, 2019)", "proteins": {"B1": {"name": "HEV^440-691 (hepatitis E virus ORF1 residues 440-691) (domain or fragment, Hepatitis E virus (HEV), UniProt P33424 440-691, looked up)", "chain": "AGFHLDPRVLVFDESAPCHCRTAIRKAVSKFCCFMKWLGQECTCFLQPAEGVVGDQGHDNEAYEGSDVDPAESAISDISGSYVVPGTALQPLYQALDLPAEIVARAGRLTATVKVSQVDGRIDCETLLGNKTFRTSFVDGAVLETNGPERHNLSFDASQSTMAAGPFSLTYAASAAGLEVRYVAAGLDHRAVFAPGVSPRSAPGEVTAFCSALYRFNREAQRLSLTGNFWFHPEGLLGPFAPFSPGHVWESA"}}, "target": "the molecule itself", "assay": "SEC"}
{"protein": "B1", "values": [{"measurement": "binding result", "result": "binds"}]}
